T1: human CLDN9 (human, UniProt O95484 1-217)
T1 construct: whole, on cells; Transiently expressed on HEK293 cells
T1 sequence (looked up): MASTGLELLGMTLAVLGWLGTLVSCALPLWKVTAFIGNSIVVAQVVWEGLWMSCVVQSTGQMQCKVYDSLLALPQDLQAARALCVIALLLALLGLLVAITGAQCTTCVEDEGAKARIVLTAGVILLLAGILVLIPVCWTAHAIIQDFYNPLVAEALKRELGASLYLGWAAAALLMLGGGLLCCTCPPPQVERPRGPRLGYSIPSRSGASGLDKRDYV

B1: XENP24644 (antibody, V domains shown)
VH: QVQLQQPGAELVRPGASVKLSCKASGYTFTSYWINWVKQRPGQGLEWIGNIYPSDSYTNYNQKFKDKATLTVDKSSSTAYMQLSSPTSEDSAVYYCTRSWRGNSFDYWGQGTTLTVSS
VL: DIVMTQSPSSLTVTAGEKVTMSCKSSQSLLNSGNQKNYLTWYQQKPGQPPKLLIYWASTRESGVPDRFTGSGSGTDFTLTISSVQAEDLAVYYCQNDYSYPFTFGSGTKLEIK
notes: also called H0L0 CLDN18.2; bivalent mAb
B2: XENP24647 (bispecific antibody)
heavy: QVQLQQPGAELVRPGASVKLSCKASGYTFTSYWINWVKQRPGQGLEWIGNIYPSDSYTNYNQKFKDKATLTVDKSSSTAYMQLSSPTSEDSAVYYCTRSWRGNSFDYWGQGTTLTVSSASTKGPSVFPLAPSSKSTSGGTAALGCLVKDYFPEPVTVSWNSGALTSGVHTFPAVLQSSGLYSLSSVVTVPSSSLGTQTYICNVNHKPSDTKVDKKVEPKSCDKTHTCPPCPAPPVAGPSVFLFPPKPKDTLMISRTPEVTCVVVDVKHEDPEVKFNWYVDGVEVHNAKTKPREEEYNSTYRVVSVLTVLHQDWLNGKEYKCKVSNKALPAPIEKTISKAKGQPREPQVYTLPPSREEMTKNQVSLTCDVSGFYPSDIAVEWESDGQPENNYKTTPPVLDSDGSFFLYSKLTVDKSRWEQGDVFSCSVMHEALHNHYTQKSLSLSPGK
chain: QVQLQQPGAELVRPGASVKLSCKASGYTFTSYWINWVKQRPGQGLEWIGNIYPSDSYTNYNQKFKDKATLTVDKSSSTAYMQLSSPTSEDSAVYYCTRSWRGNSFDYWGQGTTLTVSSASTKGPSVFPLAPSSKSTSGGTAALGCLVKDYFPEPVTVSWNSGALTSGVHTFPAVLQSSGLYSLSSVVTVPSSSLGTQTYICNVNHKPSNTKVDKKVEPKSCGGGGSGGGGSEVQLVESGGGLVQPGGSLRLSCAASGFTFSTYAMNWVRQAPGKGLEWVGRIRSKYNNYATYYADSVKGRFTISRDDSKNTLYLQMNSLRAEDTAVYYCVRHGNFGDSYVSWFAYWGQGTLVTVSSGKPGSGKPGSGKPGSGKPGSQAVVTQEPSLTVSPGGTVTLTCGSSTGAVTTSNYANWVQQKPGKSPRGLIGGTNKRAPGVPARFSGSLLGGKAALTISGAQPEDEADYYCALWYSNHWVFGGGTKLTVLGGGGSGGGGSKTHTCPPCPAPPVAGPSVFLFPPKPKDTLMISRTPEVTCVVVDVKHEDPEVKFNWYVDGVEVHNAKTKPREEQYNSTYRVVSVLTVLHQDWLNGKEYKCKVSNKALPAPIEKTISKAKGQPREPQVYTLPPSREQMTKNQVKLTCLVKGFYPSDIAVEWESNGQPENNYKTTPPVLDSDGSFFLYSKLTVDKSRWQQGNVFSCSVMHEALHNHYTQKSLSLSPGK
light: DIVMTQSPSSLTVTAGEKVTMSCKSSQSLLNSGNQKNYLTWYQQKPGQPPKLLIYWASTRESGVPDRFTGSGSGTDFTLTISSVQAEDLAVYYCQNDYSYPFTFGSGTKLEIKRTVAAPSVFIFPPSDEQLKSGTASVVCLLNNFYPREAKVQWKVDNALQSGNSQESVTEQDSKDSTYSLSSTLTLSKADYEKHKVYACEVTHQGLSSPVTKSFNRGEC
notes: also called anti-CLDN18.2× anti-CD3 bsAb; Fab2-scFv
B3: XENP24645 (bispecific antibody)
heavy: B2 heavy
chain: not shown
light: B2 light
notes: expressed in HEK293E cells; also called anti-CLDN18.2× anti-CD3 bsAb; Fab-scFv
B4: XENP29476 (bispecific antibody)
heavy: EVQLVQSGAEVKKPGESLRISCKASGYTFTSYWINWVRQMPGKGLEWMGNIYPSDSYTNYNQKFQGHVTISVDKSISTAYLQWSSLKASDTAMYYCTRSWRGNSFDYWGQGTLVTVSSASTKGPSVFPLAPSSKSTSGGTAALGCLVKDYFPEPVTVSWNSGALTSGVHTFPAVLQSSGLYSLSSVVTVPSSSLGTQTYICNVNHKPSDTKVDKKVEPKSCDKTHTCPPCPAPPVAGPSVFLFPPKPKDTLMISRTPEVTCVVVDVKHEDPEVKFNWYVDGVEVHNAKTKPREEEYNSTYRVVSVLTVLHQDWLNGKEYKCKVSNKALPAPIEKTISKAKGQPREPQVYTLPPSREEMTKNQVSLTCDVSGFYPSDIAVEWESDGQPENNYKTTPPVLDSDGSFFLYSKLTVDKSRWEQGDVFSCSVMHEALHNHYTQKSLSLSPGK
chain: EVQLVQSGAEVKKPGESLRISCKASGYTFTSYWINWVRQMPGKGLEWMGNIYPSDSYTNYNQKFQGHVTISVDKSISTAYLQWSSLKASDTAMYYCTRSWRGNSFDYWGQGTLVTVSSASTKGPSVFPLAPSSKSTSGGTAALGCLVKDYFPEPVTVSWNSGALTSGVHTFPAVLQSSGLYSLSSVVTVPSSSLGTQTYICNVNHKPSNTKVDKKVEPKSCGGGGSGGGGSEVQLVESGGGLVQPGGSLRLSCAASGFTFSTYAMNWVRQAPGKGLEWVGRIRSKYNNYATYYADSVKGRFTISRDDSKNTLYLQMNSLRAEDTAVYYCVRHGNFGDSYVSWFAYWGQGTLVTVSSGKPGSGKPGSGKPGSGKPGSQAVVTQEPSLTVSPGGTVTLTCGSSTGAVTTSNYANWVQQKPGKSPRGLIGGTNKRAPGVPARFSGSLLGGKAALTISGAQPEDEADYYCALWYSNHWVFGGGTKLTVLGGGGSGGGGSKTHTCPPCPAPPVAGPSVFLFPPKPKDTLMISRTPEVTCVVVDVKHEDPEVKFNWYVDGVEVHNAKTKPREEQYNSTYRVVSVLTVLHQDWLNGKEYKCKVSNKALPAPIEKTISKAKGQPREPQVYTLPPSREQMTKNQVKLTCLVKGFYPSDIAVEWESNGQPENNYKTTPPVLDSDGSFFLYSKLTVDKSRWQQGNVFSCSVMHEALHNHYTQKSLSLSPGK
light: not shown
notes: as for B2
B5: XENP29472 (bispecific antibody)
heavy: B4 heavy
chain: not shown
light: not shown
notes: also called anti-CLDN18.2× anti-CD3 bsAb; Fab-scFv
B6: XENP29471 (antibody, V domains shown)
VH: QVQLVQSGAEVKKPGASVKVSCKASGYTFTSYWINWVRQAPGQGLEWMGNIYPSDSYTNYNQKFQGRVTMTVDKSTSTAYMELSSLRSEDTAVYYCTRSWRGNSFDYWGQGTLVTVSS
VL: B1 VL with S9D, T12A, T14S, A15L, K18R, V19A, M21I, S22N, V84L, L89V
notes: also called H2L1 CLDN18.2; bivalent mAb
B7: XENP29470 (antibody, V domains shown)
VH: EVQLVQSGAEVKKPGESLRISCKASGYTFTSYWINWVRQMPGKGLEWMGNIYPSDSYTNYNQKFQGHVTISVDKSISTAYLQWSSLKASDTAMYYCTRSWRGNSFDYWGQGTLVTVSS
VL: B1 VL with S9D, T12A, T14S, A15L, K18R, V19A, M21I, S22N, V84L, L89V
notes: also called H1L1 CLDN18.2 (printed H1LI); bivalent mAb

Changes are numbered by the printed parent chain.

The target in one assay is T1, human CLDN9. The experiment in a line: flow cytometry on HEK293 cells transiently transfected with human CLDN9, AF647 secondary antibody. (In flow cytometry, cells or beads pass a laser one at a time.)
Consider B1, for which the binding result was “no binding (tested: 30000 ng/ml)”.

As for B2, the binding result was “no binding (tested: 30000 ng/ml)”.

B3: the binding result is recorded as “no binding (tested: 30000 ng/ml)”.

In the case of B4, the binding result was “no binding (tested: 30000 ng/ml)”.

For the molecule B5, the binding result is on record as “no binding (tested: 30000 ng/ml)”.

The target of the next assay is T2, human CLDN18.2 (human).
T2 construct: also called claudin 18 splice variant 2
Put plainly: flow cytometry on HEK293 cells transiently transfected with human CLDN18.2 (column hCLDN18.2 EC50 (nM)).
Procedure: Therefore, the anti-CLDN18.2× anti-CD3 bsAbs were investigated for their binding to human CLDN18.2, cynomolgus CLDN18.2, and murine CLDN18.2. HEK293 cells were transiently transfected to express human, cynomolgus, or mouse CLDN18.2. 48 hours post transfection, cells were mixed with indicated concentrations of the bsAbs and incubated for 1 hour at 4° C. Cells were washed and then stained with a secondary Ab for 1 hour at 4° C. After two more washes, cells were analyzed on an Attune flow cytometer.
What is called EC50 is the midpoint of the concentration-response curve. Low values mean greater potency, high ones weaker potency. As to B1, the response was half-maximal at 4 nM (EC50).

Consider B2, for which the EC50 was 4 nM.

On to B3, for which the midpoint of the response, the EC50, lay at 145 nM.

In turn, B4 gave an EC50 of 6 nM.

The molecule B5 came in with an EC50 of 146 nM.

Another assay has as its target T2, human CLDN18.2. The experiment in a line: flow cytometry on SNU-601 (2E4) cells (enriched for CLDN18.2), Alexa Fluor 647 anti-human IgG Fcγ secondary.
Source text: Control samples included bsAbs having murine CLDN18.2 ABDs, bivalent anti-CLDN18.2 mAbs, cells only, and secondary antibody only.
By EC50 (read off the curve) is commonly meant the concentration giving half of the maximal effect. Read a low EC50 (read off the curve) as an effect from little substance. For the molecule B1, the “EC50 (read off the curve)” value is ~0.4 µg/mL.

Consider B6, for which the “EC50 (read off the curve)” value is ~0.9 µg/mL.

Take B7: the “EC50 (read off the curve)” value is ~0.5 µg/mL.

Regarding B2, the “EC50 (read off the curve)” value is ~0.6 µg/mL.

With B4, the “EC50 (read off the curve)” value was ~0.5 µg/mL.

Source of the values: patent US20260035458A1 (Astellas, published 2026).
